The values that follow come from a protein production outcome set (Wang et al. 2014).
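Further: failed if final PepcDB status was selected cloned or expressed and not failed if soluble or beyond.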

The data set can be described thus: label from the status in PepcDB records.
As for “MKNHLITVLVCCLFFIGCKDDKANSNQYDPSQPVVFTDFSPKEGGMRTRLYIEGSNFGNDPTKIHITIGGEKTKTIGADGKKIYCMVPSKAFDGIINVRVDGPDGKPIAEHTFEEEFKYTPATIVGTLLRKVDEDNNSAFQEGSFDEGASIPSNDCMVFDPKYKDGDNRLLFSSNHSDGLHLIDLTERTVKRLFPRTGYSTMYSFTFSADGDTLLFTDDHGQDNTTRANIYYSLRRENFRRIRPYNYGRTAYSLVYMDDGTIFYTTWWEGKVYKMIRNGAIPNIDENAEVAFSLSQISAVGGSHTILFRHPSNKFMYMLSDNFGAVFRADYDPVAKTFGNPSIIAGNMNDKSFKEGTGGSARFNKPQFGVFVKNEKYGEGIGPDNDQYDFYFCDRENHCIWKLDPHGVASLAAGRSNENADGKIWGYVDGNPLHEARFNQPAGLAYDPDTDMFYIGDIDNKGIRYMTTE”, the protein production result is “failed”.
“MNVVQVEYLNVAEIKALLNSTISKLNPRYTSNYMIVTAILTGARLSEIAGLTWNDINFNFNTININKSYDYFAKSFKPTKNKSSNRIIKINNTLCDVLKELRTNNTDLVFKNKRGLIPTSNAVNKALRARLEELNINRRNFHFHSLRHSHVAFLLSQGIDIYPIAQRLGHSDITTTTRTYAYLIEEYKDKNDAIIIAGLDKLEHHHHHH”: the protein production result was “failed”.
Regarding “MSRKSAPSSTAAPAPKLAADRIRATARELFYREGIRAVGVDAIVSAAGVTKPSLYRSFSSKDELAASYLRDYETEFWSRFDAGAQRHPDDPRAQLRLYLESLAERAANAGPYRGCGLSNAAVEYPDPDHPARLVAEAHKRELRRRLIDMARRMGAREPEVLGDGLMLLIEGAFISGQLFHGDGPARHVARLADRLIEASL”, the protein production entry is on record as “failed”.
Take “MRKNHYPLRGYISTNRSKHNLKAHLILVCKYRKKLLQGDLNNFIKSVIDEIATQSNFIIIAMESDIDHLHLMVQYIPRMSISSIISRIKQITTYRVWRDKRFIPLLQKHFWKEKTFWTDGFFVCSIGEANPETIKAYIENQG”: the protein production result is listed as “failed”.
In the case of “MDKNNNNLRLILAIALSFLFIALYSYFFQKPNKTTTQTTKQETTNNHTATSPNAPNAQHFSTTQTTPQENLLSTISFEHARIEIDSLGRIKQVYLKDKKYLTPKQKGFLEHVGHLFSSKENAQPPLKELPLLAADKLKPLEVRFLDPTLNNKAFNTPYSASKTTLGPNEQLVLTQDLGTLSIIKTLTFYDDLHYDLKIAFKSPNNLIPSYVITNGYRPVADLDSYTFSGVLLENSDKKIEKIEDKDAKEIKRFSNTLFLSSVDRYFTTLLFTKDPQGFEALIDSEIGTKNPLGFISLKNEANLHGYIGPKDYRSLKAISPMLTDVIEYGLITFFAKGVFVLLDYLYQFVGNWGWAIILLTIIVRIILYPLSYKGMVSMQKLKELAPKMKELQEKYKGEPQKLQAHMMQLYKKHGANPLGGCLPLILQIPVFFAIYRVLYNAVELKSSEWILWIHDLSIMDPYFILPLLMGASMYWHQSVTPNTMTDPMQAKIFKLLPLLFTIFLITFPAGLVLYWTTNNILSVLQQLIINKVLENKKRMHAQNKKEH”, the protein production entry was “failed”.
With “AIAVSPLKTRCCSPSSQQQASEAREIEQPSTVWELDFYSRPVYGKDNKRIWELIVVDESFLLCHVESVPNDMINSAELRKRVERLLEQVTVKPKVVKFSRMPMFNMISLALKDLGFEVKPSRRTYRLYHVLRDREANIYSKMPGYRSENTLSTSYLYSTERLPDALRGEKFAFCTADYSFLYELQSSDTIPYCDIFNTGDSILLEKELPGIIVYSERADSLASWTAGAEVSFIKFREEELELVLECGINSHYRLAKIAEDHRLVEEAKTFEQMKWHMKGFHFYAIQSLKETSGTSHIKGLWLLNDFMEQ”, the protein production result is “not failed”.
For “MAVTSPNMPASIRWGGIVALIQSTIGFGYAFFLIYREATGETDPSIVYETDNANTWVGYGTAAFFIIVFGTVVAGAINMMKGHRWGRGAVVMLNIILLPAAYYMFIEGRFSWAIVTGISALFVLGALFNKRAVLWANNEI”, the protein production entry is on record as “failed”.
As to “MQPLVSVLICAYNVEKYFAQSLAAVVNQTWRNLDILIVDDGSTDGTPAIARRFQEQDGRIRIISNPRNLGFIASLNIGLDELAKSGGGGEYIARTDADDIASPGWIEKIVGEMEKDRSIIAMGAWLEVLSEENNKSVLAAIARNGAIWDKPTRHEDIVAVFPFGNPIHNNTMIMRRSVIDGGLRFDPAYIHAEDYKFWYEAGKLGRLAYYPEALVKYRFHQDQTSSKYNLQQRRTAWKIKEEIRAGYWKAAGIAVGADCLNYGLLKSTAYALYEKALSGQDIGCLRLFLYEYFLSLEKYSLTDLLDFLTDRVMRKLFAAPQYRKILKKMLRPWKYRSYLEHHHHHH”, the protein production result is on record as “failed”.
With “MKELNDIEVTCVSGGTLSGMIVGAVDGAATGMAIGGKWGGAGGFGFGALSQLVGLIVPTAMGAIAGGTVGLFTNAETAVGYLGQYRENFGPGDVGRTTI”, the protein production entry is “failed”.
Take “MGHHHHHHSHMAFVTRQFMRSVSSSSTASASAKKIIVKHVTVIGGGLMGAGIAQVAAATGHTVVLVDQTEDILAKSKKGIEESLRKVAKKKFAENPKAGDEFVEKTLSTIATSTDAASVVHSTDLVVEAIVENLKVKNELFKRLDKFAAEHTIFASNTSSLQITSIANATTRQDRFAGLHFFNPVPVMKLVEVIKTPMTSQKTFESLVDFSKALGKHPVSCKDTPGFIVNRLLVPYLMEAIRLYERGDASKEDIDTAMKLGAGYPMGPFELLDYVGLDTTKFIVDGWHEMDAENPLHQPSPSLNKLVAENKFGKKTGEGFYKYK”: the protein production entry is “not failed”.
“MTSLPTSLLGDLDPTSDRAVFRQIADQLREAIDRGRFKEGEKLPSEAELVEHYGVSRMTVRNSFSILQGEGLVHAEHGKGVFVRPRPPVRRLASDRFARRHREQGKSAFIVEADAAGSHPQVDSLEVKEEKASQDISTRLGSVRRVLARRRRYLLDGRPVEFATSYLPLDIARDTPIAEPNPGPGGIYARLEELGHRLDHFEEEIRARMPSPSEVKTLRLASGVPVIHLIRTAYDTEGRAVEVCDTVMAADAYVLSYQLPAT”: the protein production entry is on record as “failed”.
Turning to “MSLLQQADRLHRQLLRTGPAQAPCWEPPVDMIETESAVLIYVALPGVAAGDVAVRFDPDGISISGVRPLPALRNARIHGLEIPYGRFQRRIRLPLHALEPEAPTLADGCLTLTLKKLREAPLEHHHHHH”, the protein production entry is listed as “failed”.
“MDAAKRGFPPVVDAKTCVLILGSLPGDASLAAGQYYGHPRNAFWRLMEGVIDAPLVVRAYEDRLVTLLAHGVGLWDVIETARRPGSLDAAIREPAANDLMALIDTLPALRLVAFNGGTAGRLGGRLIGTRVSTLALPSSSPAYAARTFAQKAAAWAALRDGLADTYSRPHPEPVEGPGRPPRRGRPAPRQP”: the protein production result was “failed”.
The same measure for “MSANSHFHSTHESHYQCAVCSSIDANPNSLAVNYQCLADSSVVGEFHVLPRHQGYTDLLHGGIASSLLDGAMTHCLLFRDIQALTAQLDVRYHAPIELDEHVTITAHCEGERRGIYQLVAQLLVNNEVRVTAKGKFIRPKEA”: “failed”; for “MKLLFVSPGWPRGRLWGELGFKFPSLSLAALAAVTPESWDVALCDENIEPLDLNSDADLVAITAMTPQAPQAYRIAAAFRARGKRVVMGGFHASNLPEEALQHVDAVVVGEGEVVWPQLLADLERGELQRIYRAATALAMEAIPVARRELFQGKRYLFTNTLQTTRGCPFDCEFCSVTAFYGRRYRKRPVDNVLAELELLRRRNSFAFFVDDNLVADRTYALSLFAGMKGMGFKWLSHAPIDFAHDREFLRAAGEAGCVGMFVGFESLNQDALAAMGKVTNTARSYLEDAQAFRDNGIGILGSFVLGCDNDTPAVFEGLLRFCEEARLEAAIFPILTPYPGTEVRRRLEAEGRIISSDWQDYDMEHVTFLPRGMSVDELQQGYDWLNRSFYSLPSMYRRIFKAHRSVQVFAPMNFGFRSAIRRKGRVA”: “failed”; for “MRLPGSGYSYTVIQSKNNYSQKSSFGISFVILSRGTKIFREDLFEFLSNFDFIREIISIEKQSNRSSLQFISESYGKLKFILLSDDLNSGEKVNLAMKESSCDFVFVLQSDMYLLNPFWIPNIFDEIVKKNVLLVGGEFFDKEEEMIPSIFLPSIDKKQKFKVILVNSEKDYEKTLITMDYCGLYSKEKFLQLGGFDARIQNEYFQRIDFGLRAIYFGEHVYIYRKLRIQYTALNSPENLTKSKSFLIFLLKNYVPIFVGNGVVFSFLRFCKICLKYKINPFLFQKEFKEIKGEITKNSLRFKGDLKSAIELWENDIID”: “failed”.
The same measure for “MSQNWNADYATLAKRGFMLGAGLFLLGIAGEVAGSAVLGTLPAWGDTLLVDMEMLGILVGLLSPLVFGVVMPLTE”: “failed”.
“MKRILVSLYEKEKYLDILRELHEKGWEIWASSGTAKFLKSNGIEANDVSTITGFENLLGGLVKTLHPEIFAGILGPEPRWDVVFVDLYPPPDIDIGGVALLRAAAKNWKKVKPAFDMETLKLAIEIDDEETRKYLAGMTFAFTSVYDSIRANQFVEGISLAFKREDLQLRYGENPHEKAFVYGKPAFEILHEGKTISFNNILDAENAWFMAKNLPRMGAVVVKHQSPCGAAIGEDKVEIVKKAIEADDESSFGGILAVNFEMDEEVAKSLKKYLEVIVAPSFTQEAIEVLSKKKVRLLKPGDYASWAGKMAFGSLVLSERKYPEGNFELVVGEPLSEKELEDLEFAYRVVEGAKSNAVLIAKDGVTVGIGSGQPSRKRAAWIATVMAGEKAKGAVAASDAFFPFPDSLEILAQAGVKAVVAPLGSIRDEEVIEKARELGITFYKAPSRVFRH”: the protein production result is recorded as “not failed”.
As for “MNSKSQQQEQQPIVFVTGTDTDVGKTFVSTLLVHKWKAAYWKPVQTGIESDQGDSETLKNFKIAASTWQPPIFTPTYALQKPLSPLQAMEYEPNVDIRLLDFVVPEEWSAENPLVVEGAGGVCVPITRKLEITTDLIKHLIETSGHPVYVVVVARSGLGTLNHTLLTWNHLCDNGLRSHLFGVILNGEPNEGNVQALKKFGVNIMAQVAQCTTAHDQDMELHELPSVESLMTQQDVE”, the protein production result is “failed”.
As for “MFDVAVFGSLFLTLFVIMDPPGITPIFLALTAGRPAKVQKRMAFQAVCVAGGVITVFGLLGHQILDYLHVSVPALMIAGGLLLLLIALDLLTGKTDEPKQTKDVNVALVPLGMPLLAGPGAIVSVILAVQKAGSVATQVSVWAAILAIHVVLWVVMRYSLLIIRVIKDGGVVLVTRLAGMMLSAIAVQQIINGVTQVIRGS”, the protein production entry was “failed”.
With “MHDIILMPCPEVSIIILTRNGKATIGECLKQVYAQNYTNFEVIVIDSASTDGTPDIVNNFPVRFFSIDVKDFGHGKTRNYGAKLSKGKYLAYLTQDASPFNEHWLENLIRNFSDEEVAGVYSRNVPRSDCDPFEARYISSGWGSDREVKSMQNCRNYKKLVFFSNTSSCIRKDTWEKFPFNELLVQTEDQDWSKRVLEAGYKIVYDPGSVVVHSHNNSLKILFKKYFDAGTAHIQIFKNRNNVYLPLIPFFSVISTFLDIRFMFFNNYETINIIKWVPRAVVRHFVEATAFWLGLHFDILPQALKRKFTASGHY”, the protein production entry was “failed”.
As for “MGQTALARGSSSTPTSQALYSDFSPPEGLEELLSAPPPDLVAQRHHGWNPKDCSENIDVKEGGLCFERRPVAQSTDGVRGKRGYSRGLHAWEISWPLEQRGTHAVVGVATALAPLQADHYAALLGSNSESWGWDIGRGKLYHQSKGLEAPQYPAGPQGEQLVVPERLLVVLDMEEGTLGYSIGGTYLGPAFRGLKGRTLYPSVSAVWGQCQVRIRYMGERRVEEPQSLLHLSRLCVRHALGDTRLGQISTLPLPPAMKRYLLYK”, the protein production result was “failed”.
As for “MEKREEAGEYHSKDFEWEFLKNIVENDPSLSHHLHHHHQNLSKYLPDSQPWQDFHSRHSSGKFFKERRYLLKEFPELVSCGENSKLLEIGCGNGSTVLPILRGSKNITVYACDCSSDALVRTKENIDRAISSVDNFHSFCCDFSTSEFPDWVACDRCRDKFMLNHSGGSESKHCIGGVDFVTLIFTLSAVPKERMPRAIKECFAVLKPGGLLLFRDYGLYDMTMLRFEPEKRVGFREYVRSDGTLSYFFCLDTARKLFTDAGFIEVELEYCCVKAVNRRKGKDMYRVWVHGKFQKPFSN”, the protein production entry was “failed”.
